How the values were obtained:
HeLa Kyoto [1] = test: solubility change mitosis vs G1/S (difference of NP-40 vs SDS log2 ratios) (log2 ratio difference); higher = more soluble in mitosis
HeLa Kyoto [2] = test: thermal stability score vs G1/S (z-score of summed log2 fold changes over temperatures); higher = more thermally stable than in G1/S
HeLa Kyoto [3] = test: solubility in G1/S (NP-40 vs SDS abundance) (log2 ratio); higher = more soluble; settings: cell cycle stage: G1/S
HeLa Kyoto [4] = test: melting temperature (median over replicates), in situ; higher = more thermally stable
[5] = cell cycle stage: early G1 (4.5 h after nocodazole release)
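Wherever melting temperature (median over replicates), in situ is given: HeLa Kyoto cells synchronized by double thymidine or nocodazole block, proteins quantified by TMT10plex mass spectrometry, three independent biological replicates.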
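Wherever solubility change mitosis vs G1/S (difference of NP-40 vs SDS log2 ratios) is given: synchronized HeLa Kyoto cells (double thymidine block for G1/S, nocodazole release for mitosis), protein amounts in NP-40 versus SDS lysates quantified by mass spectrometry, three biological replicates.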
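Wherever solubility in G1/S (NP-40 vs SDS abundance) is given: HeLa Kyoto cells arrested at G1/S by double thymidine block, proteins quantified by TMT10plex mass spectrometry in mild NP-40 versus SDS extracts, three biological replicates.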
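Wherever thermal stability score vs G1/S (z-score of summed log2 fold changes over temperatures) is given: synchronized HeLa Kyoto cells, proteins quantified by TMT10plex mass spectrometry, three biological replicates, mitosis taken 0.5 h after nocodazole release, G1/S directly after double thymidine block.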

Row | Sequence | solubility change mitosis (log2) (HeLa Kyoto [1]) | thermal stability score (HeLa Kyoto [2]; [5]) | thermal stability score (HeLa Kyoto [2]; cell cycle stage: mitosis) | solubility in G1/S (log2) (HeLa Kyoto [3]) | melting temperature (HeLa Kyoto [4]; cell cycle stage: G1/S) [°C] | melting temperature (HeLa Kyoto [4]; cell cycle stage: mitosis) [°C]
1 | MDFLMSGLAACGACVFTNPLEVVKTRMQLQGELQAPGTYQRHYRNVFHAFITIGKVDGLAALQKGLAPALLYQFLMNGIRLGTYGLAEAGGYLHTAEGTHSPARSAAAGAMAGVMGAYLGSPIYMVKTHLQAQAASEIAVGHQYKHQGMFQALTEIGQKHGLVGLWRGALGGLPRVIVGSSTQLCTFSSTKDLLSQWEIFPPQSWKLALVAAMMSGIAVVLAMAPFDVACTRLYNQPTDAQGKGLMYRGILDALLQTARTEGIFGMYKGIGASYFRLGPHTILSLFFWDQLRSLYYTDTK [SLC25A35] | -0.137 | 0.653 | -0.326 | 0.0544 | 56.2 | 54.3
2 | MDFNMKKLASDAGIFFTRAVQFTEEKFGQAEKTELDAHFENLLARADSTKNWTEKILRQTEVLLQPNPSARVEEFLYEKLDRKVPSRVTNGELLAQYMADAASELGPTTPYGKTLIKVAEAEKQLGAAERDFIHTASISFLTPLRNFLEGDWKTISKERRLLQNRRLDLDACKARLKKAKAAEAKATTVPDFQETRPRNYILSASASALWNDEVDKAEQELRVAQTEFDRQAEVTRLLLEGISSTHVNHLRCLHEFVKSQTTYYAQCYRHMLDLQKQLGRFPGTFVGTTEPASPPLSSTSPTTAAATMPVVPSVASLAPPGEASLCLEEVAPPASGTRKARVLYDYEAADSSELALLADELITVYSLPGMDPDWLIGERGNKKGKVPVTYLELLS [SH3GLB2] | -0.0988 | -1.15 | 0.211 | 0.445 | 49.7 | 50.1
3 | MDFSKFLADDFDVKEWINAAFRAGSKEAASGKADGHAATLVMKLQLFIQEVNHAVEETSHQALQNMPKVLRDVEALKQEASFLKEQMILVKEDIKKFEQDTSQSMQVLVEIDQVKSRMQLAAESLQEADKWSTLSADIEETFKTQDIAVISAKLTGMQNSLMMLVDTPDYSEKCVHLEALKNRLEALASPQIVAAFTSQAVDQSKVFVKVFTEIDRMPQLLAYYYKCHKVQLLAAWQELCQSDLSLDRQLTGLYDALLGAWHTQIQWATQVFQKPHEVVMVLLIQTLGALMPSLPSCLSNGVERAGPEQELTRLLEFYDATAHFAKGLEMALLPHLHEHNLVKVTELVDAVYDPYKPYQLKYGDMEESNLLIQMSAVPLEHGEVIDCVQELSHSVNKLFGLASAAVDRCVRFTNGLGTCGLLSALKSLFAKYVSDFTSTLQSIRKKCKLDHIPPNSLFQEDWTAFQNSIRIIATCGELLRHCGDFEQQLANRILSTAGKYLSDSCSPRSLAGFQESILTDKKNSAKNPWQEYNYLQKDNPAEYASLMEILYTLKEKGSSNHNLLAAPRAALTRLNQQAHQLAFDSVFLRIKQQLLLISKMDSWNTAGIGETLTDELPAFSLTPLEYISNIGQYIMSLPLNLEPFVTQEDSALELALHAGKLPFPPEQGDELPELDNMADNWLGSIARATMQTYCDAILQIPELSPHSAKQLATDIDYLINVMDALGLQPSRTLQHIVTLLKTRPEDYRQVSKGLPRRLATTVATMRSVNY [COG7] | -0.0565 | 0.766 | 1.31 | 0.165 | 48.8 | 48.7
4 | MDGAAGPGDGPAREALQSLSQRLRVQEQEMELVKAALAEALRLLRLQVPPSSLQGSGTPAPPGDSLAAPPGLPPTCTPSLVSRGTQTETEVELKSSPGPPGLSNGPPAPQGASEEPSGTQSEGGGSSSSGAGSPGPPGILRPLQPPQRADTPRRNSSSSSSPSERPRQKLSRKAISSANLLVRSGSTESRGGKDPLSSPGGPGSRRSNYNLEGISVKMFLRGRPITMYIPSGIRSLEELPSGPPPETLSLDWVYGYRGRDSRSNLFVLRSGEVVYFIACVVVLYRPGGGPGGPGGGGQRHYRGHTDCVRCLAVHPDGVRVASGQTAGVDKDGKPLQPVVHIWDSETLLKLQEIGLGAFERGVGALAFSAADQGAFLCVVDDSNEHMLSVWDCSRGMKLAEIKSTNDSVLAVGFNPRDSSCIVTSGKSHVHFWNWSGGVGVPGNGTLTRKQGVFGKYKKPKFIPCFVFLPDGDILTGDSEGNILTWGRSPSDSKTPGRGGAKETYGIVAQAHAHEGSIFALCLRRDGTVLSGGGRDRRLVQWGPGLVALQEAEIPEHFGAVRAIAEGLGSELLVGTTKNALLRGDLAQGFSPVIQGHTDELWGLCTHPSQNRFLTCGHDRQLCLWDGESHALAWSIDLKETGLCADFHPSGAVVAVGLNTGRWLVLDTETREIVSDVIDGNEQLSVVRYSPDGLYLAIGSHDNVIYIYSVSSDGAKSSRFGRCMGHSSFITHLDWSKDGNFIMSNSGDYEILYWDVAGGCKQLKNRYESRDREWATYTCVLGFHVYGVWPDGSDGTDINSLCRSHNERVVAVADDFCKVHLFQYPCARAKAPSRMYGGHGSHVTSVRFTHDDSHLVSLGGKDASIFQWRVLGAGGAGPAPATPSRTPSLSPASSLDV [EML3] | -0.215 | -0.497 | 0.0727 | 0.0248 | 51.6 | 52
5 | MDGDGDPESVGQPEEASPEEQPEEASAEEERPEDQQEEEAAAAAAYLDELPEPLLLRVLAALPAAELVQACRLVCLRWKELVDGAPLWLLKCQQEGLVPEGGVEEERDHWQQFYFLSKRRRNLLRNPCGEEDLEGWCDVEHGGDGWRVEELPGDSGVEFTHDESVKKYFASSFEWCRKAQVIDLQAEGYWEELLDTTQPAIVVKDWYSGRSDAGCLYELTVKLLSEHENVLAEFSSGQVAVPQDSDGGGWMEISHTFTDYGPGVRFVRFEHGGQDSVYWKGWFGARVTNSSVWVEP [FBXO2] | -0.206 | 0.487 | -0.484 | -0.047 | 51.9 | 50.8
6 | MDGETAEEQGGPVPPPVAPGGPGLGGAPGGRREPKKYAVTDDYQLSKQVLGLGVNGKVLECFHRRTGQKCALKLLYDSPKARQEVDHHWQASGGPHIVCILDVYENMHHGKRCLLIIMECMEGGELFSRIQERGDQAFTEREAAEIMRDIGTAIQFLHSHNIAHRDVKPENLLYTSKEKDAVLKLTDFGFAKETTQNALQTPCYTPYYVAPEVLGPEKYDKSCDMWSLGVIMYILLCGFPPFYSNTGQAISPGMKRRIRLGQYGFPNPEWSEVSEDAKQLIRLLLKTDPTERLTITQFMNHPWINQSMVVPQTPLHTARVLQEDKDHWDEVKEEMTSALATMRVDYDQVKIKDLKTSNNRLLNKRRKKQAGSSSASQGCNNQ [MAPKAPK3] | -0.141 | 0.292 | 1.45 | 0.454 | 49.1 | 51.2
7 | MDGFAGSLDDSISAASTSDVQDRLSALESRVQQQEDEITVLKAALADVLRRLAISEDHVASVKKSVSSKGQPSPRAVIPMSCITNGSGANRKPSHTSAVSIAGKETLSSAAKSGTEKKKEKPQGQREKKEESHSNDQSPQIRASPSPQPSSQPLQIHRQTPESKNATPTKSIKRPSPAEKSHNSWENSDDSRNKLSKIPSTPKLIPKVTKTADKHKDVIINQEGEYIKMFMRGRPITMFIPSDVDNYDDIRTELPPEKLKLEWAYGYRGKDCRANVYLLPTGKIVYFIASVVVLFNYEERTQRHYLGHTDCVKCLAIHPDKIRIATGQIAGVDKDGRPLQPHVRVWDSVTLSTLQIIGLGTFERGVGCLDFSKADSGVHLCIIDDSNEHMLTVWDWQKKAKGAEIKTTNEVVLAVEFHPTDANTIITCGKSHIFFWTWSGNSLTRKQGIFGKYEKPKFVQCLAFLGNGDVLTGDSGGVMLIWSKTTVEPTPGKGPKGVYQISKQIKAHDGSVFTLCQMRNGMLLTGGGKDRKIILWDHDLNPEREIEVPDQYGTIRAVAEGKADQFLVGTSRNFILRGTFNDGFQIEVQGHTDELWGLATHPFKDLLLTCAQDRQVCLWNSMEHRLEWTRLVDEPGHCADFHPSGTVVAIGTHSGRWFVLDAETRDLVSIHTDGNEQLSVMRYSIDGTFLAVGSHDNFIYLYVVSENGRKYSRYGRCTGHSSYITHLDWSPDNKYIMSNSGDYEILYWDIPNGCKLIRNRSDCKDIDWTTYTCVLGFQVFGVWPEGSDGTDINALVRSHNRKVIAVADDFCKVHLFQYPCSKAKAPSHKYSAHSSHVTNVSFTHNDSHLISTGGKDMSIIQWKLVEKLSLPQNETVADTTLTKAPVSSTESVIQSNTPTPPPSQPLNETAEEESRISSSPTLLENSLEQTVEPSEDHSEEESEEGSGDLGEPLYEEPCNEISKEQAKATLLEDQQDPSPSS [EML4] | -0.0416 | -1.11 | -1.34 | -0.0517 | 51 | 50.3
8 | MDGGDDGNLIIKKRFVSEAELDERRKRRQEEWEKVRKPEDPEECPEEVYDPRSLYERLQEQKDRKQQEYEEQFKFKNMVRGLDEDETNFLDEVSRQQELIEKQRREEELKELKEYRNNLKKVGISQENKKEVEKKLTVKPIETKNKFSQAKLLAGAVKHKSSESGNSVKRLKPDPEPDDKNQEPSSCKSLGNTSLSGPSIHCPSAAVCIGILPGLGAYSGSSDSESSSDSEGTINATGKIVSSIFRTNTFLEAP [FAM192A] | -0.000768 | -1.68 | -2.27 | 0.194 | 57.6 | 
9 | MDGIVTEVAVGVKRGSDELLSGSVLSSPNSNMSSMVVTANGNDSKKFKGEDKMDGAPSRVLHIRKLPGEVTETEVIALGLPFGKVTNILMLKGKNQAFLELATEEAAITMVNYYSAVTPHLRNQPIYIQYSNHKELKTDNTLNQRAQAVLQAVTAVQTANTPLSGTTVSESAVTPAQSPVLRIIIDNMYYPVTLDVLHQIFSKFGAVLKIITFTKNNQFQALLQYGDPVNAQQAKLALDGQNIYNACCTLRIDFSKLVNLNVKYNNDKSRDYTRPDLPSGDGQPALDPAIAAAFAKETSLLAVPGALSPLAIPNAAAAAAAAAAGRVGMPGVSAGGNTVLLVSNLNEEMVTPQSLFTLFGVYGDVQRVKILYNKKDSALIQMADGNQSQLAMNHLNGQKMYGKIIRVTLSKHQTVQLPREGLDDQGLTKDFGNSPLHRFKKPGSKNFQNIFPPSATLHLSNIPPSVAEEDLRTLFANTGGTVKAFKFFQDHKMALLQMATVEEAIQALIDLHNYNLGENHHLRVSFSKSTI [PTBP2] | -0.0237 | 0.234 | 0.47 | 0.308 | 48.8 | 49
10 | MDGKRRPGPGPGVPPKRARGGLWDDDDAPRPSQFEEDLALMEEMEAEHRLQEQEEEELQSVLEGVADGQVPPSAIDPRWLRPTPPALDPQTEPLIFQQLEIDHYVGPAQPVPGGPPPSRGSVPVLRAFGVTDEGFSVCCHIHGFAPYFYTPAPPGFGPEHMGDLQRELNLAISRDSRGGRELTGPAVLAVELCSRESMFGYHGHGPSPFLRITVALPRLVAPARRLLEQGIRVAGLGTPSFAPYEANVDFEIRFMVDTDIVGCNWLELPAGKYALRLKEKATQCQLEADVLWSDVVSHPPEGPWQRIAPLRVLSFDIECAGRKGIFPEPERDPVIQICSLGLRWGEPEPFLRLALTLRPCAPILGAKVQSYEKEEDLLQAWSTFIRIMDPDVITGYNIQNFDLPYLISRAQTLKVQTFPFLGRVAGLCSNIRDSSFQSKQTGRRDTKVVSMVGRVQMDMLQVLLREYKLRSYTLNAVSFHFLGEQKEDVQHSIITDLQNGNDQTRRRLAVYCLKDAYLPLRLLERLMVLVNAVEMARVTGVPLSYLLSRGQQVKVVSQLLRQAMHEGLLMPVVKSEGGEDYTGATVIEPLKGYYDVPIATLDFSSLYPSIMMAHNLCYTTLLRPGTAQKLGLTEDQFIRTPTGDEFVKTSVRKGLLPQILENLLSARKRAKAELAKETDPLRRQVLDGRQLALKVSANSVYGFTGAQVGKLPCLEISQSVTGFGRQMIEKTKQLVESKYTVENGYSTSAKVVYGDTDSVMCRFGVSSVAEAMALGREAADWVSGHFPSPIRLEFEKVYFPYLLISKKRYAGLLFSSRPDAHDRMDCKGLEAVRRDNCPLVANLVTASLRRLLIDRDPEGAVAHAQDVISDLLCNRIDISQLVITKELTRAASDYAGKQAHVELAERMRKRDPGSAPSLGDRVPYVIISAAKGVAAYMKSEDPLFVLEHSLPIDTQYYLEQQLAKPLLRIFEPILGEGRAEAVLLRGDHTRCKTVLTGKVGGLLAFAKRRNCCIGCRTVLSHQGAVCEFCQPRESELYQKEVSHLNALEERFSRLWTQCQRCQGSLHEDVICTSRDCPIFYMRKKVRKDLEDQEQLLRRFGPPGPEAW [POLD1] | -0.101 | 5.56 | 6.68 | -0.0376 | 48.3 | 49.1

Source: the supplement of paper PMC5998384
